From publication PMC8113354

System: FgU2AF23-His;GST-FgRbp1 (Fusarium graminearum PH-1;Fusarium graminearum PH-1)
Assay: pull-down
Conditions: scale: fold FgU2AF23-His bound vs FgU2AF23 alone

FgRPS20 exon1-intron1-exon2 RNA
binding signal: 1.6
